Molecular target: nMagHigh1-C714 (fused polypeptide of nMagHigh1 and a C-terminal side fragment of Cas9)
Assay: cell-based or functional assay

In the case of “N713-pMag (fused polypeptide of an N-terminal side fragment of Cas9 and pMag)”, the frequency of HDR (integration of a HindIII site) at human EMX1 locus, RFLP analysis, blue light is reported as 7.2%, the indel frequency at EMX1 locus after 0, 1, 3 and 6 hours of blue light, T7E1 assay is reported as < 1% and the light-dependent Cas9 activity, luciferase plasmid HDR assay in HEK293T cells is reported as 16.4 times.

From patent US20170298330A1
